Data: paper PMC6711530, “Identification of zinc and Zur-regulated genes in Corynebacterium diphtheriae”

Experiments:
[1] = target: T1, Zur (zinc uptake regulator) (Corynebacterium diphtheriae (strain of …, UniProt Q6NG23 1-142)); assay: EMSA; 5 uM ZnCl2; 100 nM Zur, 1 nM oligo duplex; 10 mM Tris pH 7.5, 55 mM KCl, 1 mM DTT, 10% glycerol, 0.05% NP-40, 100 ug/ml BSA, 0.03 ug/ml salmon sperm DNA, 5 uM ZnCl2 (or Zn/EDTA titration 0.25-250 uM); temperature not stated; conditions: protein: recombinant; tags: His-tag (pET30a); chain copies: 2; label: 5' biotin on strand 1; blunt
T1 sequence: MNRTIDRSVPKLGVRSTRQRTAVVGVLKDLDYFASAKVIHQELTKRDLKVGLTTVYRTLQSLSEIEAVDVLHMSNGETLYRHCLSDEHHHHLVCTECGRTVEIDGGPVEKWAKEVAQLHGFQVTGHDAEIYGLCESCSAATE

[2] = target: T1, Zur (zinc uptake regulator); assay: EMSA; 250 uM EDTA; 100 nM Zur, 1 nM oligo duplex; 10 mM Tris pH 7.5, 55 mM KCl, 1 mM DTT, 10% glycerol, 0.05% NP-40, 100 ug/ml BSA, 0.03 ug/ml salmon sperm DNA, 5 uM ZnCl2 (or Zn/EDTA titration 0.25-250 uM); temperature not stated; conditions: protein: recombinant; tags: His-tag (pET30a); chain copies: 2; label: 5' biotin on strand 1; blunt

B1: cztA (dip1101) site 2 (dsDNA)
DNA 1: GGGCATAAATGAAAATATGGGCTATGCTGCCCC
DNA 2: GGGGCAGCATAGCCCATATTTTCATTTATGCCC
B1: binds [1].

B2: cztA (dip1101) site 1 (dsDNA)
DNA 1: GGGTATCAGTACACATTATTTTCAATAAAGCCC
DNA 2: GGGCTTTATTGAAAATAATGTGTACTGATACCC
B2: binds [1].

B3: iutA (dip0169) DtxR binding site (dsDNA)
DNA 1: CCCTGTTTTAGCTTAGCCCTAGCTAATTTGGGG
DNA 2: CCCCAAATTAGCTAGGGCTAAGCTAAAACAGGG
B3: no binding [1].

B4: cmrA (dip2325) site (dsDNA)
DNA 1: CCCAATTATCGGTAATTATTTTCATTAAAAGGG
DNA 2: CCCTTTTAATGAAAATAATTACCGATAATTGGG
B4: binds [2].

B5: adhA (dip2114) site (dsDNA)
DNA 1: CCCTTCTAATGGTACCTATTTTCAATAGGTGGG
DNA 2: CCCACCTATTGAAAATAGGTACCATTAGAAGGG
B5: binds [2].
